For orientation: IC50 means the midpoint of a concentration-inhibition curve. One may read the EC50 as the midpoint of the concentration-response curve. By Kd is commonly meant the free concentration of one partner at which half of the binding sites on the other are occupied at equilibrium, for simple one-to-one binding. A word on the koff: it is the rate constant with which the complex falls apart. For orientation: kon means a measure of how fast the partners come together.

Here are results for seven molecules from US20190248900A1 (Y BIOLOGICS, published 2019).

In experiment [1] the target is T1, human PD-1 (NM_005018.2) over-expressed on cells (human, UniProt Q15116 25-288). The experiment is described as follows: cell-based or functional assay.
Experiment [2] addresses T2, PD1-hFc (human, UniProt Q15116 25-170).
T2 construct: extracellular domain; also called PD1-hFc protein; Human PD-1-Fc (S1420, Y-Biologics)
Kind of experiment: competition ELISA: PD1-Fc coated, PDL1-His as binder, antibody as competitor. As for the experimental part: (§1) Human PD-1-Fc (S1420, Y-Biologics) or PD-L2-Fc (#10292-H02H, Sino) was added to wells of a 96-well immuno microplate (#439454, Thermo) and then washed three times with PBS containing 0.05% tween-20 (#P9416, Sigma-Aldrich), followed by allowing to stand in a cleaning solution containing 4% skim milk (#232120, Becton, Dickinson and Company) at room temperature for 1 hour to block non-specific binding. […] After the resulting product was subjected to the same washing method as above, the anti-Biotin-His antibody (#MA1-21315-BTIN, Thermo) diluted to 1:2000 was added to the well of the microplate, allowed to react at room temperature for 1 hour, streptavidin poly-HRP antibody (#21140, Pierce) diluted to 1:5000 was added to the well of microplate, reacted at room temperature for 1 hour and then washed in the same manner. 100 ul of a TMB substrate solution (#T0440, Sigma-Aldrich) was added to the reaction product, light was shielded, and the reaction product was allowed to stand at room temperature for 3 minutes, 50 μL of 2.5 M sulfuric acid (#S1478, Samchun) was added to stop the reaction, and absorbance was measured at 450 nm using a spectrophotometer (*GM3000, Glomax® Discover System Promega).
(In general: An ELISA detects its analyte on a solid surface through an enzyme-linked reagent.)

Experiment [3] concerns the target T3, PD-1-His (S1352, Y-Biologics) (UniProt Q15116 25-170, limits assumed).
T3 construct: not shown: His tag
The experiment is described as follows: competition ELISA: PD-L2-Fc coated, PD-1-His as binder, antibody as competitor. The method, then: as §1

A further experiment has as its target T4, M11.
T4 construct: also called PD1 mutant M11
Kind of experiment: ELISA, 1 ug/ml.

In a further experiment the target is T5, ITGA6-Fc.
T5 construct: Fc fusion
T5 sequence (P23229 whole entry, species assumed, looked up): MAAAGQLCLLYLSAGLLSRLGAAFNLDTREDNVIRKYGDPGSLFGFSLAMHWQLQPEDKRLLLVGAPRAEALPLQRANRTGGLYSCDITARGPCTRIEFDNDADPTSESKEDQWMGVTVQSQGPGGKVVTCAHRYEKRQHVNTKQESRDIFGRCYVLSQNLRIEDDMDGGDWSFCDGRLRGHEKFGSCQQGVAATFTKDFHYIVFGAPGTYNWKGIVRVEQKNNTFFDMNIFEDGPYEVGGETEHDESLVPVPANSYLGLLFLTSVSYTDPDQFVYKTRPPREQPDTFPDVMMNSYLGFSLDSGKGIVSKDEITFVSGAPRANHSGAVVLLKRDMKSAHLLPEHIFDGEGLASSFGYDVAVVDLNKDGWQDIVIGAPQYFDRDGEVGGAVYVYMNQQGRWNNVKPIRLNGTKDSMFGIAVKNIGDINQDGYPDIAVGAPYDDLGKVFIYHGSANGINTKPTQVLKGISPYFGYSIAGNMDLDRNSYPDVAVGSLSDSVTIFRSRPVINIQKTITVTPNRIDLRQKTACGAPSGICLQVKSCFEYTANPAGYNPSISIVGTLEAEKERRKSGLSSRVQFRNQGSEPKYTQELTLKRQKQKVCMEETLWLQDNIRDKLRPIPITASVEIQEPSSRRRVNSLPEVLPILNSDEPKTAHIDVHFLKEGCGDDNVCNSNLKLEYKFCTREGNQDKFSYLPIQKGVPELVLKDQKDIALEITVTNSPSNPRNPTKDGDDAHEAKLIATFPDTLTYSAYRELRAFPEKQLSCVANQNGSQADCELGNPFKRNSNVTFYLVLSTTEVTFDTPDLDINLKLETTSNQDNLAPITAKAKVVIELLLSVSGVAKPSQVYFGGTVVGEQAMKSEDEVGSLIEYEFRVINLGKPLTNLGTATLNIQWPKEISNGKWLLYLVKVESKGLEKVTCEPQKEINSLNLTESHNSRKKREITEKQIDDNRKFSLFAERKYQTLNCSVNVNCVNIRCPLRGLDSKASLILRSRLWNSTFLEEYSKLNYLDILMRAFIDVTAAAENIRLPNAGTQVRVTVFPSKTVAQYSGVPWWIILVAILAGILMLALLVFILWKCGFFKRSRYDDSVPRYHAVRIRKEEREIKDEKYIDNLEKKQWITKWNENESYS
The experiment is described as follows: ELISA, 1 ug/ml.

Experiment [4] deals with T1, human PD-1 (NM_005018.2) over-expressed …. The experiment is described as follows: cell-based or functional assay. This is another data set of the same source.
In experiment [5] the target is T2, PD1-hFc. Kind of experiment: SPR ProteOn XPR36, PD1-hFc immobilised, antibody as analyte. The method, then:
A ProteOn XPR36 (BioRad) instrument was used. The GLC sensor chip (BioRad) was mounted on the instrument and washed with PBST buffer, and the carboxymethyldextran surface was activated with an EDC/sulfo-NHS mixed solution. PD1-hFc dissolved at a concentration of 5 ug/ml in a 10 mM sodium acetate buffer solution (pH 5.0) was injected and immobilized on the GLC sensor chip.
In order to deactivate the activated carboxyl groups that remain unreacted with the PD1 protein, 1 M ethanolamine was flowed and 10 mM glycine (pH 2.0) was injected in order to wash proteins that remain unbound to the sensor chip.
The equilibrium dissociation constant (KD) was calculated by plotting and fitting the sensogram data in the equilibrium state depending on concentration.

The next experiment has as its target T6, M7.
T6 construct: also called PD1 mutant M7
The experiment is described as follows: ELISA, 1 ug/ml.

For the next experiment, the target named is T7, rat PD1 protein (rat, UniProt D3ZIN8 25-169).
T7 construct: also called rat PD-1 proteins
T7 sequence: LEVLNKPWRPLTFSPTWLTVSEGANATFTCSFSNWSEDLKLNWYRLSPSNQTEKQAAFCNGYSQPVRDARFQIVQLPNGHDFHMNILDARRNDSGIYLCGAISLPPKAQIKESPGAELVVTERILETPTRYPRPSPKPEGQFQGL
The experiment is described as follows: SPR ProteOn XPR36; format for rat PD1 not described.

The target of another experiment is T8, monkey PD1 protein (monkey).
T8 construct: also called monkey PD-1 proteins
Kind of experiment: SPR ProteOn XPR36; format for monkey PD1 not described.

B1: PD1-62E1 (antibody, V domains shown)
VH: QVQLVESGGDLVKPGRSLRLSCTGSGFTFGDHPLTWVRQIPGKGLEWVGFIRSKAYGETTEYAASVKGRFTISRDDSKSIAYLQMNSLRAEDTAVYYCASVSYCSGGSCYQGTFDYWGQGTLVTVSS
VL: DIQMTQSPAILSLSPGERATLSCRASQSVTSDVAWYQHIRGQAPRLLIYDASNRASGIPARFSGGGSGTEFTLTISSLEPEDFAVYYCQQYNNWPLTFGGGTKVEIK
B1: the “EC50 [nM], PD1/PD-L1 blockade bioassay” value in [1] came to 2.73 nM. In addition, the IC50 with PD1-hFc [2] came out at 2.89 nM; in experiment [3] it was 314 nM.

B2: mPDL2-mFC (Fc fusion, mouse (prefix m on the sheet), UniProt Q9WUL5 20-221, looked up)
ligand fused to Fc: LFTVTAPKEVYTVDVGSSVSLECDFDRRECTELEGIRASLQKVENDTSLQSERATLLEEQLPLGKALFHIPSVQVRDSGQYRCLVICGAAWDYKYLTVKVKASYMRIDTRILEVPGTGEVQLTCQARGYPLAEVSWQNVSVPANTSHIRTPEGLYQVTSVLRLKPQPSRNFSCMFWNAHMKELTSAIIDPLSRMEPKVPRTW
notes: mFC fusion
Turning to B2, the OD490 in the experiment with M11 was 1.7; in the experiment with ITGA6-Fc, 0.3.

B3: PD1-49A2(A/1B2) (antibody, V domains shown)
VH: QVQLVESGGGVVQPGRSLRLSCAASGFTFLRYAMHWVRQAPGKGLEWVAVISYDGQDKYYADSVKGRFTISRDNSKNTLYLQMNSLRAEDTAVYYCTTTTFDSWGRGTLVTVSS
VL: DIVMTQTPLSLPVTPGEPASISCRSSQSLLDSDDGNTYLDWYLQKPGQSPQLLIYTLSHRASGVPDRFSGSGSGTEFNLRISRVEAEDVGIYYCMQRVEFPFTFGQGTKLEIK
notes: scFv-phage in the screening ELISA; whole IgG in the other assays; also called 49A2-1B2; PD1 49A2 1B2
As for B3, the “EC50 [nM], PD1/PD-L1 blockade bioassay” value in experiment [1] was found to be 1.3 nM. This molecule also had an EC50 in experiment [4] of 2.03 nM. In the experiment with PD1-hFc [5], the affinity, expressed as Kd, was 0.166 nM; the koff was 6.39e-05 s⁻¹; the kon came to 385000 M⁻¹ s⁻¹.

B4: PD1-49A2(A/1H8) (antibody, V domains shown)
VH: QVQLVESGGGVVQPGRSLRLSCAASGFTFKTYAMHWVRQAPGKGLEWVAVISYDGQHKYYADSVKGRFTISRDNSKNTLYLQMNSLRAEDTAVYYCTTTTFDSWGQGTLVTVSS
VL: DIVMTQTPLSLPVTPGEPASISCRSSQSLLDRDGGHTYVDWYLQKPGQSPRLLIYTLSHRALGVPDRFSGSGSGTDFTLKISRVEADDVGLYYCMQRIEFPFTFGQGTKVEIK
notes: scFv-phage in the screening ELISA; whole IgG in the other assays; also called 49A2-1H8; PD1 49A2 1H8
Consider B4, for which the “EC50 [nM], PD1/PD-L1 blockade bioassay” value in experiment [1] came out at 1.21 nM. Besides, in [4], it took 1.45 nM to reach a half-maximal effect (EC50). In the experiment with PD1-hFc [5], this molecule yielded a Kd of 0.0124 nM, a koff of 2.74e-06 s⁻¹ and a kon of 220000 M⁻¹ s⁻¹.

B5: PD1-49A2(A/2A6) (antibody, V domains shown)
VH: QVQLVESGGGVVQPGRSLRLSCAASGFTFKYYAMHWVRQAPGKGLEWVTVISYDGQYKYYADSVKGRFTISRDNSKNTLYLQMNSLRAEDTAVYYCTTTTFDSWGQGTLVTVSS
VL: DIVMTQTPLSLPVTPGEAASISCRSSQSLLDSEDGNTYLDWYLQRPGQSPQLLIYTLSHRASGVPGRFSGSGSGTEFNLRISRVEAEDVGIYYCMQRVEFPFTFGQGTKVEIK
notes: scFv-phage in the screening ELISA; whole IgG in the other assays; also called 49A2-2A6; PD1 49A2 2A6
Regarding B5, the “EC50 [nM], PD1/PD-L1 blockade bioassay” value in [1] was determined as 1.51 nM. In addition, the EC50 in [4] was found to be 1.67 nM. Further, in the experiment with PD1-hFc [5], binding was characterised by a dissociation constant (Kd) of 0.0691 nM, the koff stood at 2.14e-05 s⁻¹ and the kon stood at 310000 M⁻¹ s⁻¹.

B6: PD1-45D6(A/5B5) (antibody, V domains shown)
VH: QVQLVESGGGVVQPGRSLRLSCAASGFTFRTYAMHWVRQAPGKGLEWVAVISYDGNDKYYADSVKGRFTISRDNSKNTLYLQMNSLRAEDTAVYYCVPTTFEYWGQGTLVTVSS
VL: DIVMTQTPLSLPVMPGEAASISCRSSQSLLDSEDGNTYLDWYLQKPGQSPQLLIYTLSHRASGVPDRFSGSGSGTDFTLKISRVEADDVGIYYCMQRVEFPFTFGQGTKVEIK
notes: scFv-phage in the screening ELISA; whole IgG in the other assays; also called 45D6-5B5; PD1 45D6 5B5
Regarding B6, in experiment [1], the “EC50 [nM], PD1/PD-L1 blockade bioassay” value worked out at 1.68 nM. Besides, the half-maximal effective concentration (EC50) in [4] is 0.906 nM. In addition, in the experiment with PD1-hFc [5], binding was characterised by a dissociation constant (Kd) of 0.0477 nM, the koff is 1.41e-05 s⁻¹ and the kon amounted to 296000 M⁻¹ s⁻¹.

B7: PD1-45D6(A/5B2) (antibody, V domains shown)
VH: QVQLVESGGGVVQPGRSLRLSCAASGFTFSFYAMHWVRQAPGKGLEWVAVISYDGNDKYYADSVKGRFTISRDNSKNTLYLQMNSLRAEDTAVYYCVPTTFEYWGQGTLVTVSS
VL: DIVMTQTPLSPPVTPGEPASISCRSSQSLLDSDDGNTYLDWYLQKPGQSPQLLIYTLSHRASGVPDRFSGSGSGTDFTLEISRVEAEDVGVYYCMQRRDFPFTFGQGTKLDIK
notes: scFv-phage in the screening ELISA; whole IgG in the other assays; also called 45D6-5B2; PD1 45D6 5B2
As to B7, the “EC50 [nM], PD1/PD-L1 blockade bioassay” value in [1] was determined as 1.48 nM. The OD490 came out at 0.446 in the experiment with M11, 0.238 with M7 and 0.124 with ITGA6-Fc. In experiment [4], this molecule registered an EC50 of 1.66 nM. The Kd was 4.59 nM in the experiment with rat PD1 protein and 0.0582 nM with PD1-hFc [5]. Moreover, the koff with rat PD1 protein came out at 0.000863 s⁻¹; with PD1-hFc [5] it was 1.93e-05 s⁻¹. The kon with rat PD1 protein was determined as 188000 M⁻¹ s⁻¹; with monkey PD1 protein, 208000 M⁻¹ s⁻¹; in the experiment with PD1-hFc [5], 332000 M⁻¹ s⁻¹. Moreover, the 50% inhibitory concentration (IC50) in the experiment with PD1-hFc [2] was found to be 3.09 nM; in experiment [3], 75.4 nM.
